The values that follow come from paper PMC6261655, “Harnessing a previously unidentified capability of bacterial allosteric transcription factors for sensing diverse small molecules in vitro” (Science Advances, 2018).

The labels stand for the following.
T1: HucR (Deinococcus radiodurans, UniProt Q9RV71)
T1 sequence (Q9RV71 1-181): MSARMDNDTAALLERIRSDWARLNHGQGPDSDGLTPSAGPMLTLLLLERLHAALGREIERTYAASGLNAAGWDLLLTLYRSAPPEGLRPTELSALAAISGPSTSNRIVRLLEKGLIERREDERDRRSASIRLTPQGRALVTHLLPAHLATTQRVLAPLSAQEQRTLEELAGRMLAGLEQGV

T2: AvaR1 (Streptomyces avermitilis, UniProt Q82H41 1-234)
T2 sequence: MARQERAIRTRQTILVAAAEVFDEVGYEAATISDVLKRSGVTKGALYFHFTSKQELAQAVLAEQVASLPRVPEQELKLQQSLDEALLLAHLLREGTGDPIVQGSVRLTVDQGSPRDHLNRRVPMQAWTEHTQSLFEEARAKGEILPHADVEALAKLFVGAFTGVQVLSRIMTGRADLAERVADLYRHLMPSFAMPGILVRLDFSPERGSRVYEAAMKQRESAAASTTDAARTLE

B1: DNAAvaR1-0 (dsDNA)
DNA 1: CGCAAGAGGGACTTGAAGACAAAACCGTCTAGTACGTATCTTTGACCTCCAGCTCTTCC
DNA 2: GGAAGAGCTGGAGGTCAAAGATACGTACTAGACGGTTTTGTCTTCAAGTCCCTCTTGCG
B2: DNAAvaR1-3 (dsDNA)
DNA 1: B1 DNA 1
DNA 2: GGAAGAGCTGGAGGTCAAAGATACGTACTAGACGGT
DNA 3: TTTGTCTTCAAGTCCCTCTTGCG
modifications: nick in bottom strand
B3: DNAAvaR1-8 (dsDNA)
DNA 1: B1 DNA 1
DNA 2: GGAAGAGCTGGAGGTCAAAGATACGT
DNA 3: ACTAGACGGTTTTGTCTTCAAGTCCCTCTTGCG
modifications: nick in bottom strand
B4: DNAAvaR1-12 (dsDNA)
DNA 1: B1 DNA 1
DNA 2: GGAAGAGCTGGAGGTCAA
DNA 3: AGATACGTACTAGACGGTTTTGTCTTCAAGTCCCTCTTGCG
modifications: nick in bottom strand
B5: DNAAvaR1-11 (dsDNA)
DNA 1: B1 DNA 1
DNA 2: GGAAGAGCTGGAGGTCAAAG
DNA 3: ATACGTACTAGACGGTTTTGTCTTCAAGTCCCTCTTGCG
modifications: nick in bottom strand
B6: DNAAvaR1-2 (dsDNA)
DNA 1: B1 DNA 1
DNA 2: GGAAGAGCTGGAGGTCAAAGATACGTACTAGACGGTTT
DNA 3: TGTCTTCAAGTCCCTCTTGCG
modifications: nick in bottom strand
B7: DNAAvaR1-7 (dsDNA)
DNA 1: B1 DNA 1
DNA 2: GGAAGAGCTGGAGGTCAAAGATACGTAC
DNA 3: TAGACGGTTTTGTCTTCAAGTCCCTCTTGCG
modifications: nick in bottom strand
B8: DNAAvaR1-5 (dsDNA)
DNA 1: B1 DNA 1
DNA 2: GGAAGAGCTGGAGGTCAAAGATACGTACTAGA
DNA 3: CGGTTTTGTCTTCAAGTCCCTCTTGCG
modifications: nick in bottom strand
B9: DNAAvaR1-9 (dsDNA)
DNA 1: B1 DNA 1
DNA 2: GGAAGAGCTGGAGGTCAAAGATAC
DNA 3: GTACTAGACGGTTTTGTCTTCAAGTCCCTCTTGCG
modifications: nick in bottom strand
B10: DNAAvaR1-1 (dsDNA)
DNA 1: B1 DNA 1
DNA 2: GGAAGAGCTGGAGGTCAAAGATACGTACTAGACGGTTTTG
DNA 3: TCTTCAAGTCCCTCTTGCG
modifications: nick in bottom strand
B11: DNAAvaR1-10 (dsDNA)
DNA 1: B1 DNA 1
DNA 2: GGAAGAGCTGGAGGTCAAAGAT
DNA 3: ACGTACTAGACGGTTTTGTCTTCAAGTCCCTCTTGCG
modifications: nick in bottom strand
B12: DNAAvaR1-4 (dsDNA)
DNA 1: B1 DNA 1
DNA 2: GGAAGAGCTGGAGGTCAAAGATACGTACTAGACG
DNA 3: GTTTTGTCTTCAAGTCCCTCTTGCG
modifications: nick in bottom strand
B13: DNAAvaR1-6 (dsDNA)
DNA 1: B1 DNA 1
DNA 2: GGAAGAGCTGGAGGTCAAAGATACGTACTA
DNA 3: GACGGTTTTGTCTTCAAGTCCCTCTTGCG
modifications: nick in bottom strand
B14: DNATetR-0 (dsDNA)
DNA 1: CCTCCGATTTTCAGATTGACACTCTATCATTGATAGGGATATATTCCAACTCTATCAAT
DNA 2: ATTGATAGAGTTGGAATATATCCCTATCAATGATAGAGTGTCAATCTGAAAATCGGAGG
B15: DNATetR-1 (dsDNA)
DNA 1: B14 DNA 1
DNA 2: ATTGATAGAGTTGGAATATATCCCTATCAATGATAGAGTG
DNA 3: TCAATCTGAAAATCGGAGG
modifications: nick in bottom strand
B16: DNATetR-7 (dsDNA)
DNA 1: B14 DNA 1
DNA 2: ATTGATAGAGTTGGAATATATCCCTATCA
DNA 3: ATGATAGAGTGTCAATCTGAAAATCGGAGG
modifications: nick in bottom strand
B17: DNATetR-5 (dsDNA)
DNA 1: B14 DNA 1
DNA 2: ATTGATAGAGTTGGAATATATCCCTATCAATG
DNA 3: ATAGAGTGTCAATCTGAAAATCGGAGG
modifications: nick in bottom strand
B18: DNATetR-8 (dsDNA)
DNA 1: B14 DNA 1
DNA 2: ATTGATAGAGTTGGAATATATCCCTAT
DNA 3: CAATGATAGAGTGTCAATCTGAAAATCGGAGG
modifications: nick in bottom strand
B19: DNATetR-11 (dsDNA)
DNA 1: B14 DNA 1
DNA 2: ATTGATAGAGTTGGAATATAT
DNA 3: CCCTATCAATGATAGAGTGTCAATCTGAAAATCGGAGG
modifications: nick in bottom strand
B20: DNATetR-2 (dsDNA)
DNA 1: B14 DNA 1
DNA 2: ATTGATAGAGTTGGAATATATCCCTATCAATGATAGAG
DNA 3: TGTCAATCTGAAAATCGGAGG
modifications: nick in bottom strand
B21: DNATetR-10 (dsDNA)
DNA 1: B14 DNA 1
DNA 2: ATTGATAGAGTTGGAATATATCC
DNA 3: CTATCAATGATAGAGTGTCAATCTGAAAATCGGAGG
modifications: nick in bottom strand
B22: DNATetR-3 (dsDNA)
DNA 1: B14 DNA 1
DNA 2: ATTGATAGAGTTGGAATATATCCCTATCAATGATAG
DNA 3: AGTGTCAATCTGAAAATCGGAGG
modifications: nick in bottom strand
B23: DNATetR-12 (dsDNA)
DNA 1: B14 DNA 1
DNA 2: ATTGATAGAGTTGGAATAT
DNA 3: ATCCCTATCAATGATAGAGTGTCAATCTGAAAATCGGAGG
modifications: nick in bottom strand
B24: DNATetR-4 (dsDNA)
DNA 1: B14 DNA 1
DNA 2: ATTGATAGAGTTGGAATATATCCCTATCAATGAT
DNA 3: AGAGTGTCAATCTGAAAATCGGAGG
modifications: nick in bottom strand
B25: DNATetR-6 (dsDNA)
DNA 1: B14 DNA 1
DNA 2: ATTGATAGAGTTGGAATATATCCCTATCAA
DNA 3: TGATAGAGTGTCAATCTGAAAATCGGAGG
modifications: nick in bottom strand
B26: DNATetR-9 (dsDNA)
DNA 1: B14 DNA 1
DNA 2: ATTGATAGAGTTGGAATATATCCCT
DNA 3: ATCAATGATAGAGTGTCAATCTGAAAATCGGAGG
modifications: nick in bottom strand

Chain of TetR (P04483 whole entry): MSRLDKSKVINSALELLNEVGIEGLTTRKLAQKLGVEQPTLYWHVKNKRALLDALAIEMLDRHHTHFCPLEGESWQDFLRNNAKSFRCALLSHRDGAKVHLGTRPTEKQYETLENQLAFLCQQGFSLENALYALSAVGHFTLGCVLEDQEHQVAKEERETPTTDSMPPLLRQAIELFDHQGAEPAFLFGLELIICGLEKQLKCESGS

In the first data set the target is T1, HucR. Briefly: isothermal titration calorimetry. The data set is classed as binding.
Conditions: not given
`O=c1[nH]c(=O)c2[nH]c(=O)[nH]c2[nH]1` [UA] had a Kd of 9350 ± 990 nM.

The target in the next data set is HosA (Escherichia coli, UniProt Q7ABA6). The experiment in a line: isothermal titration calorimetry. The data set is classed as binding.
Chain of HosA (Q7ABA6 whole entry, looked up): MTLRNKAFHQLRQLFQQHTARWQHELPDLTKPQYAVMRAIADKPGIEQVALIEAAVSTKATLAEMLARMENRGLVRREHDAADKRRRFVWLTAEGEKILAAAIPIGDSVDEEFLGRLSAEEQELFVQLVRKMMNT
Conditions: not given
Molecule `O=C(O)c1ccc(O)cc1` [4-HBA] displayed a dissociation constant Kd of 4740 ± 250 nM.

The target in a further data set is T2, AvaR1. The experiment in a line: BLI; BLI: HBS-EP (10 mM Hepes, 15 mM NaCl, 3 mM EDTA, 0.005% Tween 20, 0.1% BSA, pH 7.4), temperature not stated; EMSA: 20 mM Tris-HCl pH 7.5, 2 mM DTT, 5 mM MgCl2. The note with it: protein: recombinant; label: 5'-biotin on strand 1; blunt.
For the molecule B1, the dissociation constant Kd came to 11.7 ± 0.028 nM.

The data set is the same for the next values; noted with them: protein: recombinant; label: 5'-biotin on strand 1; blunt, nicked 1:2 1:3.
With B2, the dissociation constant (Kd) turned out to be 17 ± 0.052 nM. As for B3, the Kd stood at 14.1 ± 0.025 nM. Same read-out and setting: the value for B4 was 8.33 ± 0.015 nM. On the same count and under the same terms, the value for B5 was 13 ± 0.027 nM; that for B6 was 15.1 ± 0.034 nM; that for B7 was 10.8 ± 0.03 nM.

Regarding B8, the Kd was found to be 14 ± 0.027 nM. Still for that read-out and setting: the result for B9 reads 22.2 ± 0.245 nM; that for B10, 18.3 ± 0.052 nM. On the same count and under the same terms, the value for B11 was 11 ± 0.026 nM; that for B12 was 16 ± 0.032 nM; that for B13 was 12.6 ± 0.021 nM.

Another data set concerns the target TetR (Escherichia coli, UniProt P04483 1-207). Described as above. The note with it: protein: recombinant; chain copies: 2; label: 5'-biotin on strand 1; blunt.
On to B14, for which the dissociation constant Kd was determined as 1.08 ± 0.06 nM.

Staying with this data set, now noted: protein: recombinant; chain copies: 2; label: 5'-biotin on strand 1; blunt, nicked 1:2 1:3.
As for B15, the Kd turned out to be 1.3 ± 0.04 nM. Still for that read-out and setting: the result for B16 reads 1.85 ± 0.06 nM. On the same count and under the same terms, the value for B17 was 1.91 ± 0.03 nM; that for B18 was 1.52 ± 0.044 nM; that for B19 was 1.58 ± 0.04 nM. Same read-out and setting: the value for B20 was 1.78 ± 0.07 nM. B21: the Kd stood at 1.22 ± 0.03 nM. Same read-out and setting: the result for B22 reads 1.72 ± 0.11 nM; that for B23, 1.1 ± 0.05 nM; that for B24, 1.89 ± 0.07 nM. With B25, the equilibrium dissociation constant (Kd) was found to be 2 ± 0.59 nM.

With B26, the equilibrium dissociation constant (Kd) stood at 0.67 ± 0.03 nM.
